The source of these data is doi:10.1101/2025.06.13.659133, “Anti-activin treatment increases T cell infiltration in breast and pancreatic tumours and promotes survival in a SMAD4-null mouse pancreatic cancer model” (bioRxiv, 2025).

The target in one assay is T1, Noggin (UniProt Q13253 28-232).
T1 construct: Noggin, bought from Peprotech; source: bought: Peprotech
T1 sequence (looked up): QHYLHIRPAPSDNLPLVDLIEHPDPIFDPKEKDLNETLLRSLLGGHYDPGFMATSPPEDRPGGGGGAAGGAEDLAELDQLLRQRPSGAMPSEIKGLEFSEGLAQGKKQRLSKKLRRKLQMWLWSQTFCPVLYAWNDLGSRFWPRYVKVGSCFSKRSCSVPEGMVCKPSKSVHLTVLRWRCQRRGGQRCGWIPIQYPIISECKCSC
Put plainly: SPR; activin A, TGF-β3 or BMP2 immobilised on a CM4 chip (EDC-NHS, up to 400 RU); antibodies or control binders flowed over; BIAcore T200; 10 mM CHES, 150 mM NaCl, 3 mM EDTA, 0.01% P20, pH 8.0; 1:1 kinetic model. The settings on record: both partners purified. A general note: SPR reads the build-up and loss of mass on a sensor chip optically.

Another assay addresses T2, ACVR2B-ECD (used in SPR) (UniProt Q13705 19-137).
T2 construct: also called ACVR2B extracellular domain (ECD)
T2 sequence (looked up): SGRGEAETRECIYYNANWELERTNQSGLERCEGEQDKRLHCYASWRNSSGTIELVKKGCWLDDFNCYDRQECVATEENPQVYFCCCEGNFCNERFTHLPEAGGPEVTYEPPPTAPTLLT
The assay is described as above. The settings on record: both partners purified.

B1: BMP2 (ligand, UniProt P12643 283-396, looked up)
chain: QAKHKQRKRLKSSCKRHPLYVDFSDVGWNDWIVAPPGYHAFYCHGECPFPLADHLNSTNHAIVQTLVNSVNSKIPKACCVPTELSAISMLYLDENEKVVLKNYQDMVVEGCGCR
notes: BMP2, bought from Peprotech; source: bought: Peprotech
Broadly, the Kd is the constant that tells how readily two partners part at equilibrium. Read a high Kd as lower affinity. Molecule B1 showed a Kd in the assay with Noggin of 1.26 nM.

B2: activin A (immobilised on the SPR chip) (ligand, UniProt P08476 311-426, looked up)
chain: GLECDGKVNICCKKQFFVSFKDIGWNDWIIAPSGYHANYCEGECPSHIAGTSGSSLSFHSTVINHYRMRGHSPFANLKSCCVPTKLRPMSMLYYDDGQNIIKKDIQNMIVEECGCS
In the assay with ACVR2B-ECD (used in SPR), B2 registered a Kd of 114 nM.
